{"source": "paper PMC9880977", "about": "(Computational and Structural Biotechnology Journal, 2023)", "molecules": {"B1": {"name": "HaLF (Heterobasidion irregulare TC 32-1) (protein)", "chain": "HEKGSAMYRPMTTVTRGGQALTPTPTALSFLARRADTSSAVAPSASAYALSSSFSINSNAATRTYDWTIASETGAPDGFTRNYITINGQMPGPLIEVNEGDTIVVNVQNNLDDTTSIHWHGINQNGTAYMDGVPGATQCPIPAGGSFTYTFTLSQYGTYWYHSHTAVEYTDGLLGPLIVHSVNDPLVRGTDFDYEQVLIIQDWYHDEARTIATDLLSVDGYDGTAAAPSPQSGLINGKGVFDCSQLTDSTGCSTPSFPEFTVEPNAKTRFRLINGGSHAQFYFSVDSHTLNITEADGTPVSGASSVHRLPFHNGQRYSAIIDTNVGSAGDAYWLRATMNTDCFFSTDSTLNTTAYAILRYGASTSEPTSADWTDVLPDDCVDLDDSQLVPIIAKDAPATSDKVVAFDSSFGTVEIAGIDYNRFLVNSTSYTNYVYKPILEAVAANGSTVVNSTNVANALFEDSVWTGDIIINNLDPNLDHPYHLHGNDFQIIARGTGTLSIANAASLNYNLTNPVRRDTVVIPGGGYAVLRFSNDNPGVWVLHCHIAWHLAEGFLGLIVSNPNGIAALDYPDSIQALCNARPSGVSIDTTEPGRRKRGEIDTLIGGDIVKRGAMGSRWSRKRMINQRR"}}, "key": {"[1]": {"molecular_target": "T1, HaLF (Heterobasidion irregulare, UniProt W4KBR7)", "T1 sequence (W4KBR7 21-648)": "B1 chain", "test": "spectrophotometric oxidation at […] nm, hyperbola or Hill fit", "type": "biochemical", "conditions": "read-out: HaLF / KM; 100 mM citrate-phosphate pH 4; air O2"}, "[2]": {"molecular_target": "T2, HaLF (Heterobasidion irregulare, UniProt W4KBR7, A247E/F364D)", "T2 sequence (W4KBR7 21-648 A247E/F364D)": "B1 chain", "test": "spectrophotometric oxidation at […] nm, hyperbola or Hill fit", "type": "biochemical", "conditions": "read-out: HaLFA227E, F344D / KM; 100 mM citrate-phosphate pH 4; air O2"}, "[3]": {"tested_on": "CCn1c(=NN=c2sc3cc(S(=O)(=O)O)ccc3n2CC)sc2cc(S(=O)(=O)O)ccc21", "test": "purified protein", "conditions": "100 mM citrate-phosphate pH 4, air O2"}, "[4]": {"tested_on": "COc1ccccc1O", "test": "purified protein", "type": "biochemical, Heterobasidion irregulare", "conditions": "100 mM citrate-phosphate pH 5, air O2"}, "[5]": {"tested_on": "COc1cccc(OC)c1O", "test": "purified protein", "type": "biochemical, Heterobasidion irregulare", "conditions": "100 mM citrate-phosphate pH 5, air O2"}, "[6]": {"substrate": "COc1cccc(OC)c1O", "test": "purified protein", "type": "biochemical, Heterobasidion irregulare", "conditions": "100 mM citrate-phosphate pH 5, air O2", "remark": "listed apart in the source"}, "[7]": {"substrate": "COc1ccccc1O", "test": "purified protein", "type": "biochemical, Heterobasidion irregulare", "conditions": "100 mM citrate-phosphate pH 5, air O2", "remark": "listed apart in the source"}, "[8]": {"substrate": "Nc1ccccc1N", "test": "purified protein", "conditions": "100 mM citrate-phosphate pH 4, air O2"}, "[9]": {"substrate": "CCn1c(=NN=c2sc3cc(S(=O)(=O)O)ccc3n2CC)sc2cc(S(=O)(=O)O)ccc21", "test": "purified protein", "conditions": "100 mM citrate-phosphate pH 4, air O2", "remark": "listed apart in the source"}}}
{"molecule": "CN(C)c1ccc(N)cc1", "note": "[DMPD, N,N-Dimethyl-1,4-phenylenediamine]", "values": [{"measurement": "Km", "setting": "[1]", "result": "8 ± 0.4", "unit": "mM"}, {"measurement": "Km", "setting": "[2]", "result": "9 ± 0.8", "unit": "mM"}]}
{"molecule": "HaLF (Heterobasidion irregulare TC 32-1; A247E/F364D)", "values": [{"measurement": "Km", "setting": "[3]", "result": "11 ± 1.5", "unit": "mM"}, {"measurement": "kcat", "setting": "[3]", "result": "16 ± 1", "unit": "s⁻¹"}, {"measurement": "Km", "setting": "[4]", "result": "31 ± 4", "unit": "mM"}, {"measurement": "kcat", "setting": "[4]", "result": "0.3 ± 0.02", "unit": "s⁻¹"}, {"measurement": "Km", "setting": "[5]", "result": "3.8 ± 0.3", "unit": "mM"}, {"measurement": "kcat", "setting": "[5]", "result": "0.87 ± 0.03", "unit": "s⁻¹"}]}
{"molecule": "B1", "values": [{"measurement": "Km", "setting": "[6]", "result": "0.5 ± 0.05", "unit": "mM"}, {"measurement": "kcat", "setting": "[6]", "result": "122 ± 4", "unit": "s⁻¹"}, {"measurement": "Km", "setting": "[7]", "result": "20 ± 5", "unit": "mM"}, {"measurement": "kcat", "setting": "[7]", "result": "3.7 ± 0.4", "unit": "s⁻¹"}, {"measurement": "Km", "setting": "[8]", "result": "1.6 ± 0.3", "unit": "mM"}, {"measurement": "kcat", "setting": "[8]", "result": "26 ± 2", "unit": "s⁻¹"}, {"measurement": "Km", "setting": "[9]", "result": "4 ± 0.6", "unit": "mM"}, {"measurement": "kcat", "setting": "[9]", "result": "428 ± 14", "unit": "s⁻¹"}]}
